Measured values reported in patent publication US20160039934A1 (AFFIRMED, published 2016).

Legend:
EGFRvIII = EGFRvIII (UniProt P00533 25-1210); test: cell-based or functional assay
human CD3 [1] = molecular target: T1, human CD3 (human, UniProt P07766 23-207); test: flow cytometry on Jurkat cells, non-linear regression (rounded restatement of the FIG. 3 value)
T1 construct: whole, on cells; CD3 is a multi-chain complex; also called CD3 on human CD3+ Jurkat cells; CD3+ human T cell line (Jurkat)
T1 sequence (P07766 23-207): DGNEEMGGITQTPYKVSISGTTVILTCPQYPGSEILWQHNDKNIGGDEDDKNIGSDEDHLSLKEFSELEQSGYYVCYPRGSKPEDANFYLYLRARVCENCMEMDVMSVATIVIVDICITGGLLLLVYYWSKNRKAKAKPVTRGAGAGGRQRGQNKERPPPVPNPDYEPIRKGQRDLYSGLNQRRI
Excerpt: (§1) Cell-surface bound tandem diabody was detected by anti-His mAb followed by FITC-conjugated goat anti-mouse IgG. To calculate KD, mean fluorescence intensities determined by flow cytometry were modeled as sigmoidal dose-response by non-linear regression.
(§2) FIGS. 3A and 3B present binding of titrated tandem diabodies TandAb D, containing var_y, and TandAb E (SEQ ID NO:12), containing var_z, to a CD3⁺ human T cell line (Jurkat) and a CD3⁺ cynomolgus cell line (HSC-F), as determined by flow cytometric analysis.

human CD3 [2] = molecular target: T1, human CD3; test: flow cytometry on Jurkat cells; reference TandAb E
Excerpt: as §1, §2

cynomolgus CD3 = molecular target: T2, cynomolgus CD3 (cynomolgus, UniProt Q95LI5 22-198); test: flow cytometry on cynomolgus CD3+ HSC-F cells, anti-His mAb and FITC goat anti-mouse IgG, non-linear regression of MFI
T2 construct: whole, on cells; CD3 is a multi-chain complex; also called CD3 on cynomolgus CD3+ HSC-F cells; cynomolgus CD3-expressing cell line (HSC-F)
T2 sequence (Q95LI5 22-198): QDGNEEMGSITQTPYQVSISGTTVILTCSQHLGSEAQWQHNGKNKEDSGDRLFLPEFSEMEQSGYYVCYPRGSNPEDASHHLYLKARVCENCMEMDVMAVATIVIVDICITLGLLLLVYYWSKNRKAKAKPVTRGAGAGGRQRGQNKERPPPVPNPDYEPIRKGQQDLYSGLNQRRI
Excerpt: as §1, §2

human CD3 [3] = molecular target: T1, human CD3; test: flow cytometry on human CD3+ Jurkat cells, anti-His mAb and FITC goat anti-mouse IgG, non-linear regression of MFI
Excerpt: as §1, §2

| Binder | EC50, 4 h calcein release cytotoxicity assay (EGFRvIII) [nM] | Kd (human CD3 [1]) [nM] | fold higher affinity than TandAb E (human CD3 [2]) [fold] | Kd (cynomolgus CD3) [nM] | Kd (human CD3 [3]) [nM] |
| --- | --- | --- | --- | --- | --- |
| TandAb G (SEQ ID NO:14) (bispecific antibody) DIQMTQSPSSLSASVGDRVTITCRSSTGAVTTSNYANWVQQKPGKAPKGLIGGTNKRAPGVPSRFSGSLIGDKATLTISSLQPEDFATYYCALWYSNLWVFGQGTKVEIKGGSGGSEVQLVQSGAEVKKPGESLKISCKGSGYSFTSYWIGWVRQMPGKGLEWMGIIYPGDSDTRYSPSFQGQVTISADKSISTAYLQWSSLKASDTAMYYCARLGSSWTNDAFDIWGQGTMVTVSSGGSGGSSYELTQPPSVSVSPGQTARITCSGDALPKQYAYWYQQKPGQAPVLVIYKDSERPSGIPERFSGSSSGTTVTLTISGVQAEDEADYYCQSADSSGTPLIVFGTGTKLTVLGGSGGSEVQLVESGGGLVQPGGSLRLSCAASGFTFSTYAMNWVRQAPGKGLEWVGRIRSKYNNYATYYADSVKDRFTISRDDSKNSLYLQMNSLKTEDTAVYYCARHGNFGNSYVSWFAYWGQGTLVTVSSAAAGSHHHHHH | 0.129 |  |  |  |  |
| TandAb D (var_y) (SEQ ID NO:11) (bispecific antibody, Homodimeric tandem diabody; Detected by anti-His mAb) DIQMTQSPSSLSASVGDRVTITCRSSTGAVTTSNYANWVQQKPGKAPKALIGGTNKRAPGVPSRFSGSLIGDKATLTISSLQPEDFATYYCALWYSNLWVFGQGTKVEIKGGSGGSEVQLVQSGAEVKKPGESLKISCKGSGYSFTSYWIGWVRQMPGKGLEWMGIIYPGDSDTRYSPSFQGQVTISADKSISTAYLQWSSLKASDTAMYYCARLGSSWTNDAFDIWGQGTMVTVSSGGSGGSSYELTQPPSVSVSPGQTARITCSGDALPKQYAYWYQQKPGQAPVLVIYKDSERPSGIPERFSGSSSGTTVTLTISGVQAEDEADYYCQSADSSGTPLIVFGTGTKLTVLGGSGGSEVQLVESGGGLVQPGGSLRLSCAASGFTFSTYAMNWVRQAPGKGLEWVGRIRSKYNNYATYYADSVKDRFTISRDDSKNSLYLQMNSLKTEDTAVYYCARHGNFGNSYVSYFAYWGQGTLVTVSSAAAGSHHHHHH | 0.122 | 1.8 | > 10 | 3.4 | 1.82 |
| TandAb E (var_z) (SEQ ID NO:12) (bispecific antibody, Homodimeric tandem diabody; Detected by anti-His mAb) DIQMTQSPSSLSASVGDRVTITCRSSTGAVTTSNYANWVQQKPGKAPKGLIGGTNKRAPGVPSRFSGSLIGDKATLTISSLQPEDFATYYCALWYSNLWVFGQGTKVEIKGGSGGSEVQLVQSGAEVKKPGESLKISCKGSGYSFTSYWIGWVRQMPGKGLEWMGIIYPGDSDTRYSPSFQGQVTISADKSISTAYLQWSSLKASDTAMYYCARLGSSWTNDAFDIWGQGTMVTVSSGGSGGSSYELTQPPSVSVSPGQTARITCSGDALPKQYAYWYQQKPGQAPVLVIYKDSERPSGIPERFSGSSSGTTVTLTISGVQAEDEADYYCQSADSSGTPLIVFGTGTKLTVLGGSGGSEVQLVESGGGLVQPGGSLRLSCAASGFTFSTYAMNWVRQAPGKGLEWVGRIRSKYNNYATYYADSVKDRFTISRDDSKNSLYLQMNSLKTEDTAVYYCARHGNFGNSYVSHFAYWGQGTLVTVSSAAAGSHHHHHH |  | 27.7 |  | 24.3 | 27.7 |
